Source: patent publication US20190177408A1 (SUZHOU CONNECT BIOPHARMACEUTICALS, published 2019)

T1: IL-4Rα on TF-1 cells (human, UniProt P24394 26-825)
T1 sequence (looked up): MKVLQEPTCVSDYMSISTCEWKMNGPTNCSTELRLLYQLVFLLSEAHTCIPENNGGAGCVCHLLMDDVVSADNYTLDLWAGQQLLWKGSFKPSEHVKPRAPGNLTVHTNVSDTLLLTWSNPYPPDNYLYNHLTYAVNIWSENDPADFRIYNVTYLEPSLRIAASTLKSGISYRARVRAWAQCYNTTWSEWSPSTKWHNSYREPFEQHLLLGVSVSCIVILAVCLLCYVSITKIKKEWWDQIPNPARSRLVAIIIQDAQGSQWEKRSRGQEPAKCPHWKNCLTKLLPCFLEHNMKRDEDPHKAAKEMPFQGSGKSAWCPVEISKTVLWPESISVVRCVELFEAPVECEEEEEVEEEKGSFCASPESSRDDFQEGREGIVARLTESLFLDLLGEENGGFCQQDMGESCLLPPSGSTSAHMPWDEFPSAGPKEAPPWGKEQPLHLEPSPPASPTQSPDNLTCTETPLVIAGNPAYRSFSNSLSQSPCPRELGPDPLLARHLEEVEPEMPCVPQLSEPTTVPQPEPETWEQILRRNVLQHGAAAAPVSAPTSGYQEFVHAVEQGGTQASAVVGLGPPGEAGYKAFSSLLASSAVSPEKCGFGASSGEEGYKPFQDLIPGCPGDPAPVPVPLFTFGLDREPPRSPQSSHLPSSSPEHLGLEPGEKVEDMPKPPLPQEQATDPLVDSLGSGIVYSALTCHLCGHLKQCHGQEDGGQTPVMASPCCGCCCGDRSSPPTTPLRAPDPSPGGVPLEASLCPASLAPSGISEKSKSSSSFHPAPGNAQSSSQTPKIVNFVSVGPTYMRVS

T2: human soluble IL-4Rα (sIL-4Rα) (human, UniProt P24394 26-232)
T2 construct: Bought reagent (PEPRO TECH, Catalog Number 200-04R); also called shIL-4Rα; soluble hIL-4 Rα
T2 sequence: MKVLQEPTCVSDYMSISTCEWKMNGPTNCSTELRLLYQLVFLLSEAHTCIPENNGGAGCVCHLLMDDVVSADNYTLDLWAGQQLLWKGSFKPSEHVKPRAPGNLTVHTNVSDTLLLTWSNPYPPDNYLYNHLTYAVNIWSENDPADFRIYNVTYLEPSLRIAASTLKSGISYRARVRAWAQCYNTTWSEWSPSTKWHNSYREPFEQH


How the values were obtained:
IL-4Rα on TF-1 cells [1] = target: T1, IL-4Rα on TF-1 cells; experiment: cell-based or functional assay
[2] = target: T2, human soluble IL-4Rα (sIL-4Rα); experiment: ELISA, coated sIL-4Rα, culture supernatant
Experimental: 100 μl of 100 μg/ml sIL-4Rα solution was added to 9.90 ml of PBS, mixed up and down, and then an antigen coating buffer of 1.0 μg/ml was obtained. The prepared antigen coating buffer was added to a 96-well ELISA plate (Corning) with a volume of 100 μl per well. The 96-well ELISA plate was incubated overnight in a refrigerator at 4° C. On the next day; the solution therein was discarded; and PBS containing 2% BSA was added to the 96-well ELISA plate row by row with a volume of 300 μl per well. The 96-well ELISA plate was incubated for 2 hours in a refrigerator at 4° C., Then the PBS containing 2% BSA was discarded and the plate was washed 3 times with PBST. Diluted antibodies to be tested were sequentially added to the corresponding wells, while the normal cell culture supernatants, as negative control samples, were added too. Three duplicate wells were made for each sample with a volume of 100 μl per well. The ELISA plate was wrapped with preservative film (or covered) and incubated for 1 h at […] in a constant temperature incubator. Subsequently, the 96-well ELISA plate was taken out, and the solution therein was discarded. After washing with PBST for 3 times, TMB solution (Solarbio, Catalog Number: PR1200) was added to the 96-well ELISA plate row by row with a volume of 100 μl per well. The 96-well ELISA plate was placed at room temperature for 5 minutes, and 2 M H2SO4 solution was added in immediately to terminate the reaction. The 96-well ELISA plate was placed in flexstation 3 (Molecular Devices), the values of OD450 were read, and the data were collected, calculated and analyzed. Results were expressed relative to the affinity of control antibody 1.

IL-4Rα on TF-1 cells [3] = target: T1, IL-4Rα on TF-1 cells; experiment: cell-based or functional assay; remark: listed apart in the source

Row | Binder | IC50 (ng/ml) (Inhibition on the proliferation of IL-4) (IL-4Rα on TF-1 cells [1]) [ng/mL] | IC50 (ng/ml) (Inhibition on the proliferation of IL-13) (IL-4Rα on TF-1 cells [1]) [ng/mL] | OD 450/OD450Control antibody 1 [2] | Inhibitory rate on pro-proliferative effect of IL-4 (IL-4Rα on TF-1 cells [3]) | Inhibitory rate on pro-proliferative effect of IL-13 (IL-4Rα on TF-1 cells [3])
1 | L1021H1016 (antibody, V domains shown, human kappa) VH: EVQLVQSGGGLVHPGGSLRLSCAGSGFTFSRNAMFWVRQAPGKGLEWVSGIGTGGATNYADSVKGRFTISRDNAKNSLYLQMNSLRAEDMAVYYCARGRYYFPWWGQGTLVTVSS VL: EIVLTQSPGTLSLSPGERATLSCRASQSVSSSYLAWYQQKPGQAPRLLIFGASSRAPGIPDRFSGSGSGTDFTLTISRLEPEDFAVYYCQQYDHSAGWTFGQGTKVEIK | 28.5 | 69.7 | 0.63 | 1 | 0.94
2 | L1021H1031 (antibody, V domains shown, human kappa) VH: EVQLVESGGGLVQPGGSLRLSCAASGFTFSRNAMFWVRQAPGKGLEWVSGIGTGGATSYADSVKGRFTISRDNAKNSLYLQMNSLRAEDTAVYYCARGRYYFDYWGQGTLVTVSS VL: EIVLTQSPGTLSLSPGERATLSCRASQSVSSSYLAWYQQKPGQAPRLLIFGASSRAPGIPDRFSGSGSGTDFTLTISRLEPEDFAVYYCQQYDHSAGWTFGQGTKVEIK | 34.3 | 76.5 | 0.9 | 1.01 | 0.93
3 | L1021H1020 (antibody, V domains shown, human kappa) VH: EVQLVQSGGGLVHPGGSLRLSCAGSGFTFSRNAMFWVRQAPGKGLEWVSGIGTGGATSYADSVKGRFTISRDNAKNSLYLQMNSLRAEDMAVYYCARGRYYFPWWGQGTLVTVSS VL: EIVLTQSPGTLSLSPGERATLSCRASQSVSSSYLAWYQQKPGQAPRLLIFGASSRAPGIPDRFSGSGSGTDFTLTISRLEPEDFAVYYCQQYDHSAGWTFGQGTKVEIK | 15.4 | 28.6 | 0.24 | 0.91 | 0.75
